Source: the nanobody polyreactivity screen of Harvey et al. (2022)

Assay: yeast display, Sf9 membrane polyspecificity reagent, FACS + sequencing; frameworks hold sequencing errors
Outline: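 Galactose-induced (36–48 hours) yeast carrying a synthetic nanobody display library were exposed to 10% biotinylated, detergent-solubilized Sf9 membrane reagent at 4 °C for 1 hour. FACS followed streptavidin microbead enrichment, using low and high (top ~1%) gates for expression (anti-HA) and reagent binding (streptavidin). Colony PCR, MiSeq 2 × 250 sequencing and CDR-length filtering followed. Labels for polyreactivity reflect the gate of origin.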

| Sequence | polyreactivity (PSR sort gate) |
| --- | --- |
| QVQLVESGGGLVQAGGSLRLSCAASGSTFRAYAMGWYRQAPGKERELVAAISRSGGSTYYADSVKGRFTISRDNAKNTVYLQMNSLKPEDTAVYYCNAAYKNYQYRPPNIDGQGDYWGQGTQVTVSS | high polyreactivity |
| QVQLVESGGGLVQAGGSLRLSCAASGSTFRAYAMRWYRQAPGKETELVAAISSSGGSTYYADSVKGRFTISRDNAKKTVYLQMNSLKPEDTAVYYCAARGWWSRYGYWGQGTQVTVSS | high polyreactivity |
| QVQLVESGGGLVQAGGSLRLSCAASGSTFRCYAMGWYRQAPGKERELVAAISRSGGSTYYADSVKGRFTISRDNAKNTVYLQMNSLKPEDTAVYYCNARSSKRSSRGYDYWGQGTQVTVSS | high polyreactivity |
| QVQLVESGGGLVQAGGSLRLSCAASGSTFRDNSMGWYRQAPGKERELVASITKRGTSTYYADSVKGRFTISRDNAKNNVYLHMNSLKPEETSVYYCAVRRYGKTAGYDYWGQGTQVTVSS | low polyreactivity |
| QVQLVESGGGLVQAGGSLRLSCAASGSTFREYAMGWYRQAPGKERELVAAISSGDSTNYADSVKGRFTISRDNAKNTVYLQMNSLKPEDTAVYYCAADAPGAAAVQNDYWGQGTQVTVSS | low polyreactivity |
| QVQLVESGGGLVQAGGSLRLSCAASGSTFRFNAMGWYRQAPGKERELVAAITGIGGITYYADSVKGRFTISRDNAKNTVYLQMNSLKPEDTAVYYCNAVAARYSVRNGYSTHYDYWGQGTQVTVSS | high polyreactivity |
| QVQLVESGGGLVQAGGSLRLSCAASGSTFRFNTMGWYRHAPGKDRELVAAITSGGSTYYADSVKGLFTISRDNAKNTVYLQMNSLKPEDTAVYYCAATWYIRGQCYYYWGQGTQVTVSS | high polyreactivity |
| QVQLVESGGGLVQAGGSLRLSCAASGSTFRFYAMGWYRPAPGKERELVAVIRSTGSTYYADSVKGRFTISRDNAKNTVYLQMNSLKPEDTAVYYCAAQNAWWSNGRSYDYWGQGTQVTVSS | low polyreactivity |
| QVQLVESGGGLVQAGGSLRLSCAASGSTFRFYAMGWYRQAPGKERELVAAISKSGGITYYADSVKGRFTISRAHAKNTVYLQMNSLKPEDTSVSYCATVGLLSNFYSRFNYWGQGTPVTVSS | high polyreactivity |
| QVQLVESGGGLVQAGGSLRLSCAASGSTFRFYAMGWYRQAPGKERELVAAITRSGGGTTYYADSVKGRFTISRDNAKNTVYLQMNSLKPEDTAVYYCAAYLSSLGRKYYYWGQGTQVTVSS | high polyreactivity |
| QVQLVESGGGLVQAGGSLRLSCAASGSTFRGNDMGWYRQAPGKERELVASIDWSGGSTYYADSVKGRFTISRDNAKNTVYLQMNSLKPEDTAVYYCAADTSYWYDYYIDYVGYYYWGQGTQVTVSS | high polyreactivity |
| QVQLVESGGGLVQAGGSLRLSCAASGSTFRGNTMGWYRQAPGKERELVAAISRRGGGTYYADSVKGRFTISRDNAKNTVYLQMNSLKPEDTAVYYCNKRARHTGDFVWGHGYWGQGTQVTVSS | low polyreactivity |
| QVQLVESGGGLVQAGGSLRLSCAASGSTFRGYAMGWYRLAPGKEREFVASISLSGGSTYYADSVKGRFTISRDNAKNTVDSQMNSRKPEDTAVYDGAARARGYGWRGDYWGQGTHVTVSS | low polyreactivity |
| QVQLVESGGGLVQAGGSLRLSCAASGSTFRGYAMGWYRQAPGKERDLVAAMSSNGDRTFYADSVKGRFTISRDNAKNTVYLQMNSLKPEDTAVYYCNAVYRGSWQLYGYWGLGTQVTVSS | high polyreactivity |
| QVQLVESGGGLVQAGGSLRLSCAASGSTFRHNAMGWYRDAPGTERELVATIRTSGGTTYYADSVKGRFTISRDNAKNTVYLQMNSLKPEDTAVYYCAAKYSLLRQYNRLDYWGQGTQVTVSS | low polyreactivity |
| QVQLVESGGGLVQAGGSLRLSCAASGSTFRHNAMGWYRQAPGKERELVATIRTSGGTTYYADSVKGRFTISRDNAKNTVYLQMNSLKQEDTAVYYCAAVSYLFLYQGYPIAYPMYYWGQGSQVTVSS | low polyreactivity |
| QVQLVESGGGLVQAGGSLRLSCAASGSTFRHYAMGWYRQAPGKESELVAAISSTGGSTHNADSVKGRFTISRDNAKNTVFLQLHSLKPEDTAVDYCAARRLYWGQGTQVTVSS | high polyreactivity |
| QVQLVESGGGLVQAGGSLRLSCAASGSTFRINAMGWYRQAPGKERELVAAITSGGSTKYADSVKGRFTISRDNAKNTVYLQMNSLKPEDTAVYYCNKQGYPYRYFAWYPGYNYWGQGTQVTVSS | low polyreactivity |
| QVQLVESGGGLVQAGGSLRLSCAASGSTFRIYAKGWYRQAPGKERELVAAITRGARTNYADSVKGRFTISRDNAKNTVYLQMNSLKPEDTAVYYCAADGWRWYQHNGFDYWVQGTQVTVSS | high polyreactivity |
| QVQLVESGGGLVQAGGSLRLSCAASGSTFRKYAMGWYRQAPGKEREFVAAITWSTGTTYYADSVKGRFTISRDNAKNTVYLQMNSLKPEDTAVYYCNAAFWAPQAPCYYYWGQGTQVTVSS | low polyreactivity |
| QVQLVESGGGLVQAGGSLRLSCAASGSTFRLNAMGRYRQAPGKERELVAAISRSTGTTHYADSVKGRFTISRDNAKNTVYLQMKSLKPEDTAVYYCATDRAKWHKNGDLGYWGQGTQVTVSS | low polyreactivity |
| QVQLVESGGGLVQAGGSLRLSCAASGSTFRLYAMGWYRQAPGKERELVAAIRSGGNTNYADSVKGRFTISRDNAKNTVYLQMNSLKPEDTAVYYCAATYGTGRRSKYGYWGQGTQVTVSS | high polyreactivity |
| QVQLVESGGGLVQAGGSLRLSCAASGSTFRNNAMGWYRQAPGKETELVAAISFSSGRTYYADSVKGRFTISRDYAKNTVYLQMNSLKPEDTAVYYCAALQYRRRPYGAVERYDYWGQGTQVTVSS | high polyreactivity |
| QVQLVESGGGLVQAGGSLRLSCAASGSTFRPNAMGWYRQAPGKERELVAAISRSGVSTYYADSVKGRFTISRDNAKNTVYLQMNSLKPEDTAVYYCARRYTGRPVLRESWGQGTQVTVSS | low polyreactivity |
| QVQLVESGGGLVQAGGSLRLSCAASGSTFRPYAMGWYRQAPGTERELVAAISWSGGRTYYADSVKGRFTISRDNAKNNVYLQMNSLKPEDTAVYYCTRAGRQPKNTYDYWGQGTQVTVSS | high polyreactivity |
| QVQLVESGGGLVQAGGSLRLSCAASGSTFRQNALGWYRQAPGKERELVAAITYRVASTYYADSVKGRFTISRDNAKNTVYLQMNSLKPEDTAVYYCAAYKRRSNGRYWTYDYWGQGTQVTVSS | high polyreactivity |
| QVQLVESGGGLVQAGGSLRLSCAASGSTFRRNAMGWYRQAPGKERELVAAISRTAGSTYYADSVKGRFTISRDNAKNTVYLQMNSLKPEDTAVYYCNRRYVSTSGELDYWGQGTQVTVSS | high polyreactivity |
| QVQLVESGGGLVQAGGSLRLSCAASGSTFRRNVMGWYRQAPGKEREFVAAISYRTGSTYYADSVKGRFTISRDNAKNTVYLQMNSLKPEDTAVYYCAASSQWVGYYYWGQGTQVTVSS | high polyreactivity |
| QVQLVESGGGLVQAGGSLRLSCAASGSTFRRYAMGWSRQAPGKVRELVAAISRTGRTNYADSVKGRFTISRDNAKYTVYLQMNSLKPEDTAFDYCAAKSSTKQRKYYWGQGTQVTVSS | high polyreactivity |
| QVQLVESGGGLVQAGGSLRLSCAASGSTFRRYAMGWYRQAPGKERELVAAITSGGRTNYADSVKGRFTISRDNAKNTVYLQMNSLKPEDTAVYYCAARYIRGSYGMGYWGQGTQVTVSS | high polyreactivity |
